# Measured values from the supplement of paper PMC7877785.
# ± gives the uncertainty stated by the source.
# Experiment: self-splicing fitness, log relative to wild type (ln ratio); higher = more splicing; Tetrahymena group I intron in knt gene, E. coli kanamycin selection, DiMSum; sequences stand for … in CUCUCU…GGAGGGAAAAGUUAUCAGGCAUGCACCUGGUAGCUAGUCUUUAAACCAAUAGAUUGCAUCGGUUUAAAAGGCAAGACCGUCAAAUUGCGGGAAAGGGGUCAACAGCCGUUCAGUACCAAGUCUCAGGGGAAACUUUGAGAUGGCCUUGCAAAGGGUAUGGUAAUAAGCUGACGGACAUGGUCCUAACCACGCAGCCAAGUCCUAAGUCAACAGAUCUUCUGUUGAUAUGGAUGCAGUUCACAGACUAAAUGUCGGUCGGGGAAGAUGUAUUCUUCUCAUAAGAUAUAGUCGGACCUCUCCUUAAUGGGAGCUAGCGGAUGAAGUGAUGCAACACUGGAGCCGCUGGGAACUAAUUUGUAUGCGAAAGUAUAUUGAUUAGUUUUGGAGUACUCGUGGUCG
# Outline: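 A randomised library covering all eight P1ex-region intron nucleotides was built with the intron in the knt kanamycin-resistance gene on pET-22b(+) and held in E. coli BL21(DE3). Cells were grown overnight at 37°C or 30°C on LB agar, with or without 25 μg/mL kanamycin, plus 100 μg/mL carbenicillin, 50 μM IPTG and 0.2% rhamnose, and pooled colonies were amplicon-sequenced on an Illumina HiSeq 2500. DiMSum fitness is the error-weighted combination of wild-type-normalised replicate fold changes, kanamycin versus none.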
Sequence,self-splicing fitness (ln) (30 °C),self-splicing fitness (ln) (37 °C)
UUUAAGCAAUAUUACGUAGU,-2.62 ± 0.13,-2.13 ± 0.18
UUUAAGCAAUAUUACGUCCU,-1.82 ± 0.2,-1.09 ± 0.15
UUUAAGCAAUAUUACGUGCG,-0.659 ± 0.088,-0.486 ± 0.11
UUUAAGCAAUAUUACGUGCU,-3.09 ± 0.18,-1.41 ± 0.15
UUUAAGCAAUAUUACGUGUU,-3.32 ± 0.2,-2.57 ± 0.22
UUUAAGCAAUAUUACGUUGA,-2.17 ± 0.23,-1.5 ± 0.2
UUUAAGCAAUAUUACGUUGU,-3.69 ± 0.25,-2.2 ± 0.26
UUUCAGCAAUAUUACGAAAU,,-2.26 ± 0.4
UUUCAGCAAUAUUACGACGG,-1.02 ± 0.11,0.205 ± 0.17
UUUCAGCAAUAUUACGAGAA,-1.92 ± 0.37,-1.49 ± 0.24
UUUCAGCAAUAUUACGAGAC,-2.68 ± 0.36,-3.57 ± 0.46
UUUCAGCAAUAUUACGAGAG,-1.8 ± 0.069,-1.91 ± 0.088
UUUCAGCAAUAUUACGAGCU,,-1.95 ± 0.5
UUUCAGCAAUAUUACGAUGA,-0.807 ± 0.081,-0.285 ± 0.075
UUUCAGCAAUAUUACGCAUC,-2.79 ± 0.14,-0.623 ± 0.11
UUUCAGCAAUAUUACGCCUC,,-1.38 ± 0.41
UUUCAGCAAUAUUACGCGAA,-2.03 ± 0.14,-1.21 ± 0.14
UUUCAGCAAUAUUACGCUAG,-0.789 ± 0.084,-0.5 ± 0.1
UUUCAGCAAUAUUACGCUCG,0.0268 ± 0.097,0.385 ± 0.15
UUUCAGCAAUAUUACGCUUA,-0.378 ± 0.086,0.0227 ± 0.12
UUUCAGCAAUAUUACGGACA,-0.569 ± 0.09,-0.204 ± 0.1
UUUCAGCAAUAUUACGGAUA,-0.515 ± 0.11,-0.565 ± 0.11
UUUCAGCAAUAUUACGGAUU,-1.63 ± 0.083,-0.55 ± 0.097

Sequence,self-splicing fitness (ln) (30 °C),self-splicing fitness (ln) (37 °C)
UUUCAGCAAUAUUACGGCAC,-1.79 ± 0.19,-2.33 ± 0.24
UUUCAGCAAUAUUACGGCGA,-0.344 ± 0.093,0.167 ± 0.13
UUUCAGCAAUAUUACGGCUC,-1.77 ± 0.42,0.0864 ± 0.23
UUUCAGCAAUAUUACGGUCU,-1.45 ± 0.086,-0.667 ± 0.087
UUUCAGCAAUAUUACGUCUU,-2.52 ± 0.17,-1.36 ± 0.13
UUUCAGCAAUAUUACGUGAC,-2.99 ± 0.22,-1.73 ± 0.48
UUUCAGCAAUAUUACGUUCG,-1.09 ± 0.085,-0.545 ± 0.13
UUUGAGCAAUAUUACGAAAG,,-2.49 ± 0.23
UUUGAGCAAUAUUACGAAGG,-3.13 ± 0.34,-1.66 ± 0.31
UUUGAGCAAUAUUACGACAG,-2.8 ± 0.15,-1.81 ± 0.18
UUUGAGCAAUAUUACGAGAU,-3.65 ± 0.42,-3.12 ± 0.37
UUUGAGCAAUAUUACGAUCG,-2.23 ± 0.23,-1.81 ± 0.29
UUUGAGCAAUAUUACGCACG,,-1.45 ± 0.42
UUUGAGCAAUAUUACGCAUA,,-1.01 ± 0.29
UUUGAGCAAUAUUACGCGAA,-2.96 ± 0.34,-1.71 ± 0.2
UUUGAGCAAUAUUACGGAUU,-3.69 ± 0.25,-2.31 ± 0.2
UUUGAGCAAUAUUACGGUGU,,-2.7 ± 0.41
UUUGAGCAAUAUUACGUACU,-3.28 ± 0.43,
UUUGAGCAAUAUUACGUAUA,-2.78 ± 0.3,-2.67 ± 0.36
UUUGAGCAAUAUUACGUCCA,,-0.659 ± 0.37
UUUGAGCAAUAUUACGUCCU,-3.03 ± 0.27,-1.77 ± 0.2
UUUGAGCAAUAUUACGUCGA,-2.46 ± 0.2,-0.692 ± 0.24
UUUGAGCAAUAUUACGUUCA,,-2.38 ± 0.36

Sequence,self-splicing fitness (ln) (30 °C),self-splicing fitness (ln) (37 °C)
UUUUAGCAAUAUUACGAAUA,-1.26 ± 0.25,-1.04 ± 0.16
UUUUAGCAAUAUUACGAAUU,-3.26 ± 0.38,-1.23 ± 0.29
UUUUAGCAAUAUUACGAGGA,-1.04 ± 0.17,-1.3 ± 0.21
UUUUAGCAAUAUUACGAGUA,-1.55 ± 0.27,-0.821 ± 0.29
UUUUAGCAAUAUUACGAUAC,-3.18 ± 0.45,
UUUUAGCAAUAUUACGCACG,-0.889 ± 0.13,-0.745 ± 0.17
UUUUAGCAAUAUUACGCGCA,-0.13 ± 0.11,-0.0853 ± 0.12
UUUUAGCAAUAUUACGCGGC,,-2.34 ± 0.39
UUUUAGCAAUAUUACGCGUC,,-1.23 ± 0.25
UUUUAGCAAUAUUACGGACA,-1.41 ± 0.18,-0.668 ± 0.17
UUUUAGCAAUAUUACGGACG,-0.75 ± 0.2,-0.45 ± 0.2
UUUUAGCAAUAUUACGGCGG,-0.446 ± 0.16,-0.137 ± 0.15
UUUUAGCAAUAUUACGGUAG,-1.6 ± 0.18,-1.74 ± 0.16
UUUUAGCAAUAUUACGGUCA,-1.25 ± 0.17,-0.069 ± 0.13
UUUUAGCAAUAUUACGGUGC,-3.63 ± 0.24,-2.98 ± 0.38
UUUUAGCAAUAUUACGGUUA,-1.54 ± 0.2,0.105 ± 0.13
UUUUAGCAAUAUUACGUAAA,-1.52 ± 0.17,-0.431 ± 0.23
UUUUAGCAAUAUUACGUAGG,-1.99 ± 0.11,-0.229 ± 0.13
UUUUAGCAAUAUUACGUCAG,-3.93 ± 0.47,-0.297 ± 0.27
UUUUAGCAAUAUUACGUCGG,-1.95 ± 0.15,-0.321 ± 0.17
UUUUAGCAAUAUUACGUGGA,-2.5 ± 0.18,-0.992 ± 0.11
UUUUAGCAAUAUUACGUUAA,-2.45 ± 0.37,-2.52 ± 0.48
